Reference: US20170052184A1 (published 2017)

B1: HCV 208A-1064 (antibody, V domains shown)
VH: EVQLQQSGPELVKPGASVKISCKTSGYTFTEYAMHWMKQSHGKSLEWIGGINPTNGDTIYNQKFKDKAKLTVDRSSSTAYMELRSLTSDDSALFYCARRELDYFASWGQGTTLTVSS
VL: DIVLTQSPASLIVSLGQTATISCRASQSVSTSRFSYLHWIQQKPGQPPKLLIKYASNLESGVPVRFSGSGSGTDFTLNIHPVEEEDTATYFCQHSWEFPFTFGSGTKLKIKR
B2: HCV 208A-920 (antibody, V domains shown)
VH: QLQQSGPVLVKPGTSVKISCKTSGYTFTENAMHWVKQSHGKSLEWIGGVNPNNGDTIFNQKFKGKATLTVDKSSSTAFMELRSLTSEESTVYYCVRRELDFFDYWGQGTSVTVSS
VL: DIVLTQSPASLAVSLGQRATISCRASQSVSTSRYSYMHWYQQKPGQPPKLLIKYASNLESGVPARFSGSGSGTDFTLNIHPVAEEDTAAYYCQHSWEFPFTFGSGTKLEIKR
B3: HCV 208B-1094 (antibody, V domains shown)
VH: EVQLQQSGPELVKPGASVKISCKTSGYTFTEYAMHWMKQSHGKSLEWIGGINPTNGDTIYNQRFKDKAKLTVDRSSSTAYMELRSLTSDDSALFYCARRELDYFASWGQGTTLTVSS
VL: DIVLTQSPASLIVSLGQTATISCRASQSLSTSRFSYVHWIQQKPGQPPKLLIKYASNLESGVPVRFSGSGSGTDFTLNIHPVEEEDTATYFCQHSWEFPFTFGSGTKLKIKR
B4: HCV 208A-741 (antibody, V domains shown)
VH: QLQQSGPVLVKPGASVMISCKTSGYTFTENAMHWVKQSHGKSLEWIGGVNPNNGDTIFNQKFKGKATLTVDKSSSTAFMELRSLTSEESTVYYCVRRELDFFDYWGQGTSVTVSS
VL: DIVLTQSPASLAVSLGQRTTISCGASQSVSTSRFSYMHWYQQKPGQPPKLLIKYASNLESGVPARFSGSGSGTDFTLNIHPVAEEDTAAYYCQHSWEFPFTFGSGTKLEIKR
B5: HCV 208A-293 (antibody, V domains shown)
VH: EVQLQQSGPELVKPGASVKISCKASGFTFTEYAMHWMKQSHGKSLEWIGGINPTNGDAIYNQKFKDKAKLTVDRSSSTAYMELRSLTSDDSALFYCARRELDYFPSWGQGTTLTVSS
VL: DIVLTQSPASLIVSLGQRATISCRASQSVSTSRFSYVHWIQQKPGQPPKLLIKYASNLESGVPVRFSGSGSGTDFILNIHPVEEEDTATYFCQHSWEFPFTFGSGTKLEIKR
B6: HCV 208B-556 (antibody, V domains shown)
VH: QLQQSGPVLVKPGASVMISCKTSGYTFTENAMHWVKQSHGKSLEWIGGVNPNNGDTIFNQKFKGKATLTVDKSSSTAFMEFRSLTSEESTVYYCVRRELDFFDYWGQGTSVTVSS
VL: DIVLTQSPASLAVSLGQRATISCRASQSVSTSRYSYMHWYQQKPGQPPKLLIKYASNLESGVPARFSGSGSGTDFTLNIHPVAEEDTATYYCQHSWEFPFTFGSGTKLEIKR
B7: HCV 208A-159 (antibody, V domains shown)
VH: QLQQSGPAQVKPGASVMISCKTSGYTFTENAMHWVKQSHGKSLEWIGGVNPNNGDTIFNQKFKDKAALTVDKSSSTAFMELRSLTSEESTVYYCVRRELDFFDYWGQGTSVTVSS
VL: DIVLTQSPASLAVSLGQRATISCRASQSVSTSRYSYVHWYQQKPGQPPKLLIKYAANLESGVPARFSGSGSGTDFTLNIHPVAEEDAAAYYCQHSWEFPFTFGSGTKLEIKR
B8: HCV 208A-334 (antibody, V domains shown)
VH: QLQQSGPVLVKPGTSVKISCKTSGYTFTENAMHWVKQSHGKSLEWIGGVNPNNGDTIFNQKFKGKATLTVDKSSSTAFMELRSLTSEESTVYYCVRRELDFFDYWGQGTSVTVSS
VL: DIVLTQSPASLAVSLGQRATISCRASQSVSTSRYSYMHWYQQKPGQPPKLLIKYASNLESGVPARFSGSGSGTDFTLNIHPVAEEDTAAYYCQHSWGFPFTFGSGTKLEIKR
B9: HCV 208A-133 (antibody, V domains shown)
VH: QLQQSGPVLVGPGASVMISCKTSGYTFTENAMHWVEQSHGKSLEWIGGVNPNNGDTIFNQKFKGKATLTVDKSSSTAFMEFRSLTSEESTVYYCVRRELDFFDYWGQGTSVTVSS
VL: DIVLTQSPASLAVSLGQRATISCRASQSVSTSRYSYMHWYQQKPGQPPKLLIKYASNLESGVPARFSGSGSGTDFTLNIHPVAEEDTATYYCQHSWEFPFTFGSGTKLEIKR
B10: HCV 208A-110 (antibody, V domains shown)
VH: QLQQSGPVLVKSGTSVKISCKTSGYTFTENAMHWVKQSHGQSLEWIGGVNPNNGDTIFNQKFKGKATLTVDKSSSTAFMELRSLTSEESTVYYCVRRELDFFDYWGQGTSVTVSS
VL: DIVLTQSPASLAVSLGQRATISCRASQSVSTSRYSYMHWYQQKPGQPPKLLIKYASNLESGVPARFSGSGSGTDFTLNIHPVAEEDTAAYYCQHSWEFPFTFGSGTKLEIKR
B11: HCV 208B-251 (antibody, V domains shown)
VH: QLQQSGPVLVKPGASVKISCKTSGYTFTENAMHWVKQSHGKSLEWIGGVNPNNGDTIYNQKFKGKATLTVDKSSSTAFMELRSLTSEESPVYFCVRRELDFFDYWGQGTSVTVSS
VL: DIVLTQSPASLAVSLGKKATISCRASQSVSTSRYSYMHWYQQKPGHPPKLLIKYASNLESGVPARFSGSGSGTDFTLNIHPVAEEDTAAYYCQHSWEFPFTFGSGTKLEIKR
B12: HCV 208A-126 (antibody, V domains shown)
VH: QLQQSGPVLVKPGASVMISCKTSGYTFTENAMHWVKQSHGKSLEWIGGVNPNNGDTIFNQKFKGKATLTVDKSSNTAFTELRSLPSEESTVYYCVRRGLDFFDYWGQGTSVTVSS
VL: DIVLTQSPASLAVSLGQRATISCRASQSVSTSRYSYMHWYQQKPGQPPKLLIKYASNLESGVPARFSGSGSGTDFTLNIHPVAEEDTAAYYCQHSWEFPFTFGSGTKLEIKR
B13: HCV 208B-174 (antibody, V domains shown)
VH: EVKLEESGGGLVQPGGSMKLSCVASGFSFSSYWMSWVRQSPEKGLDWVAEIRLRSDNYATHYAESVKGRFTISRDDSISRLYLQMNTLRAEDTGIYYCTWMTYWGQGTLVTVSA
VL: QNVLTQSPAIMSASPGEKVTMSCSASSSVTYMFWYQLKPESSPRLLIYDTSNLASGVPVRFSGSGSGTSYSLTISRMEAEDAATYYCQEWSSYPLTFGAGTKLDLKR
B14: HCV 208B-408 (antibody, V domains shown)
VH: EVKLVESGGGLVQPGGSLRLSCASSGFTFTDYYMSWVRQPPGKALEWLGFIRNKAYGYTTEFSASVNGRFTISRDDSQSVPYLQMNTLRAEDSATYYCARVLYYDYGGFAYWGQGTLVTVST
VL: DIQMTQSPASLSASVGETVTITCRASGNIHTYLAWYQQKQGKSPQLLVYNANTLADGVPSRFSGSGSGTQFSLKINSLQPDDFGSYYCQHFWSAPWTFGGGTQLEIKR
B15: HCV 208B-1096 (antibody, V domains shown)
VH: QVQLQQSGAGLAKPGASVKMSCKASGYTFTANKMHWAKQRPGQGLEWIGYIDPSSGYTEYNHKIQYKATLTADTSSSTAYMQLSTLTFEDSAVYYCTNFAYWGQGTLVTVSA
VL: DIVMTQTPLTLSVTIGQPASISCKSSQSLLFTNGKTYLNWFLQRPGQSPKRLIYLLSKLDSGVPDRFSGSGSGTDFTLKISRVEAEDLGVYYCLQSTYFPLTFGAGTKLELKR
B16: HCV 208A-352 (antibody, V domains shown)
VH: QGQMQQSGAELVKPGASVKLSCKTSGFTFSSSFISWLKQKPGQSLEWIAWIYAGTGNTNYNQKFTDKAQLTVDTSSSTAYMQFSSLTTEDSAIYYCAISGTGFTYWGQGTLVTVSA
VL: DVLMAQTPLSLPVTLGDQASISCRSSQSLVHSNGNTYLEWFLQKPGQSPKLLIYNVSNRFSGVPDRFSGSGSGTDFTLKISRVEAEDLGVYYCFQGSHVPLTFGSGTKLEIKR
B17: HCV 208B-471 (antibody, V domains shown)
VH: QGQLQQSGPVLVKPGASEILYCKTSGFTFSSTYISWLKQKPGQSLEWIAWIYAGTGATNYNQKFTGKAQLTVDASSNTAYMHFSGLTPEDSAIYYCAISGAGVYWGQGTLVTVSA
VL: DVVMTQTPLSLPVSLGDQASISCRSSQSLLHSNGNTYLEWYLQKPGQSPNLLIYNVSNRFSGVPDRFSGSGSGTDFALKISRVGAEDLGVYYCFQGSHVPLTFGAGTKLELKR
B18: HCV 208A-983 (antibody, V domains shown)
VH: QGQMQQSGAELVKPGASVKLSCKTSGFTFSSSYFSWLKQKPGQSLEWIAWIYAGTGNTIYNQKFTDKAQLTVDTASSTAFMQLSSLTIEDSAIYYCAISGTGFTYWGQGTLVTVSA
VL: DVLMTQTPLSLPVNLGDQASISCRSSQSLLHSNGNTYLEWFLQKPGQSPKLLIYNVSNRFSGVPDRFSGSGSGTDFTLKISRVEAEDLGVYYCFQGSHVPFTFGSGTKLAIKR
B19: HCV 208A-692 (antibody, V domains shown)
VH: QGQMQQSGAELAKPGASVKLSCKTSGFTFSSSYISWLKQKPGQSLEWIAWIFAGTGNTNYNQKFTDKAQLTVDTSSSTAYMQLSSLTTEDSAIYYCAISGTGFTYWGQGTLVTVSA
VL: EVLMTQSPLSLPVSLGDQASISCRSSQSLEHSNGNTYLEWFLQRPGQPPKLLIYKVSSRFSGVPDRFSGSGSGTDFTLKISRVEAEDLGVYYCFQGSHVPFTFGSGTKLAIKR

Assays:
[1] = target: T1, HCV bt-134-154 (Peptide 1, HCVc 134-154) (Hepatitis C virus (numbering per HCV-1), biotin (carboxy-terminal per; N-terminal per)); assay: EIA, captured mAb + biotin peptide
T1 peptide: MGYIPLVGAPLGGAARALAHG

[2] = target: T2, HCV bt-141-161 (Peptide 2, HCVc 141-161) (Hepatitis C virus (numbering per HCV-1), biotin (carboxy-terminal per; N-terminal per)); assay: EIA, captured mAb + biotin peptide
T2 peptide: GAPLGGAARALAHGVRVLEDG

[3] = target: T3, HCV bt-151-171 (Peptide 3, HCVc 151-171) (Hepatitis C virus (numbering per HCV-1), biotin (carboxy-terminal per; N-terminal per)); assay: EIA, captured mAb + biotin peptide
T3 peptide: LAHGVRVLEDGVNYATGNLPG

[4] = target: T4, HCV Core 134-171-TT Peptide (hepatitis C virus (HCV-1 numbering) …); assay: SPR, captured mAb, peptide analyte
T4 construct: also called ALRZ-9 peptide

Binder | Reactivity (OD 492 nm) [1] [OD units] | Reactivity (OD 492 nm) [2] [OD units] | Reactivity (OD 492 nm) [3] [OD units] | Kd [4] [nM] | koff [4] [s⁻¹] | kon [4] [M⁻¹ s⁻¹]
B1 | 0.1 | 3.5 | 0.12 |  |  | 
B2 | 0.17 | 4 | 0.08 |  |  | 
B3 | 0.12 | 3.28 | 0.13 |  |  | 
B4 | 1.2 | 3.37 | 0.06 |  |  | 
B5 | 0.08 | 2.42 | 0.11 |  |  | 
B6 | 0.13 | 3.07 | 0.18 |  |  | 
B7 | 0.15 | 3.77 | 0.19 |  |  | 
B8 | 0.05 | 3.07 | 0.05 |  |  | 
B9 | 0.1 | 3.68 | 0.13 |  |  | 
B10 | 0.07 | 2.88 | 0.11 |  |  | 
B11 | 0.11 | 2.35 | 0.41 |  |  | 
B12 | 0.2 | 2.08 | 0.1 |  |  | 
B13 |  |  |  | 0.25 | 0.00018 | 760000
B14 | 0.81 |  | 0.16 |  |  | 
B15 |  | 0.13 | 3.56 |  |  | 
B16 | 1.08 | 0.07 | 0.06 |  |  | 
B17 |  |  |  | 0.25 | 5.5e-05 | 220000
B18 |  |  |  | 0.46 | 4.6e-05 | 97000
B19 | 3.67 |  | 0.07 |  |  | 
